These results are taken from article PMC6755732, “Structural, Biochemical, and In Vivo Characterization of MtrR-Mediated Resistance to Innate Antimicrobials by the Human Pathogen Neisseria gonorrhoeae”.

Data set [1] addresses T1, MtrR (Neisseria gonorrhoeae, UniProt P39897 1-210). Put plainly: fluorescence polarization; no bile salt; FP: 20 mM Tris-HCl pH 8.0, 100 mM NaCl, 2.5% glycerol, 1 nM DNA, temperature not stated; EMSA: 20 mM Tris pH 8.0, 200 mM NaCl, 10% glycerol, 1 mM TCEP, 1 ug poly(dI-dC), room temperature, 2% agarose TAE. The conditions noted are these: protein: recombinant; tags: His6 removed by thrombin; chain copies: 2. (Fluorescence polarisation rises when a labelled molecule tumbles more slowly, as on binding a larger partner.)

Data set [2] has as its target T1, MtrR. Put plainly: fluorescence polarization; no CAPS; FP: 20 mM Tris-HCl pH 8.0, 100 mM NaCl, 2.5% glycerol, 1 nM DNA, temperature not stated; EMSA: 20 mM Tris pH 8.0, 200 mM NaCl, 10% glycerol, 1 mM TCEP, 1 ug poly(dI-dC), room temperature, 2% agarose TAE. Conditions: protein: recombinant; tags: His6 removed by thrombin; chain copies: 2.
In data set [3] the target is MtrR(R176A) (Neisseria gonorrhoeae, UniProt P39897 1-210, R176A). Put plainly: fluorescence polarization; no bile salt; nM Kd within 5-fold of WT (137, 184 or 187 nM, assignment unclear); FP: 20 mM Tris-HCl pH 8.0, 100 mM NaCl, 2.5% glycerol, 1 nM DNA, temperature not stated; EMSA: 20 mM Tris pH 8.0, 200 mM NaCl, 10% glycerol, 1 mM TCEP, 1 ug poly(dI-dC), room temperature, 2% agarose TAE. Conditions: protein: recombinant; tags: N-terminal His6 removed by TEV; chain copies: 2.

Data set [4] concerns the target MtrR(W136L) (Neisseria gonorrhoeae, UniProt P39897 1-210, W136L). The data set is described as above. Conditions: protein: recombinant; tags: N-terminal His6 removed by TEV; chain copies: 2.
In data set [5] the target is MtrR(R176E) (Neisseria gonorrhoeae, UniProt P39897 1-210, R176E). The description is as above. The conditions noted are these: protein: recombinant; tags: N-terminal His6 removed by TEV; chain copies: 2.
In data set [6] the target is T1, MtrR. Put plainly: fluorescence polarization; 1 mM glycocholate; FP: 20 mM Tris-HCl pH 8.0, 100 mM NaCl, 2.5% glycerol, 1 nM DNA, temperature not stated; EMSA: 20 mM Tris pH 8.0, 200 mM NaCl, 10% glycerol, 1 mM TCEP, 1 ug poly(dI-dC), room temperature, 2% agarose TAE. The conditions noted are these: protein: recombinant; tags: His6 removed by thrombin; chain copies: 2.

Data set [7] has as its target T1, MtrR. Put plainly: fluorescence polarization; 1 mM taurocholate; FP: 20 mM Tris-HCl pH 8.0, 100 mM NaCl, 2.5% glycerol, 1 nM DNA, temperature not stated; EMSA: 20 mM Tris pH 8.0, 200 mM NaCl, 10% glycerol, 1 mM TCEP, 1 ug poly(dI-dC), room temperature, 2% agarose TAE. The conditions noted are these: protein: recombinant; tags: His6 removed by thrombin; chain copies: 2.

B1: mtrC (mtrCDE) operator 27-mer, fluorescein (dsDNA)
DNA 1: TTTTTATCCGTGCAATCGTGTATGTAT
DNA 2: ATACATACACGATTGCACGGATAAAAA
Consider B1, for which the Kd in data set [1] is 18 ± 3 nM; in data set [2], around 3.6 nM; in data set [6] it was 21 ± 0.8 nM; in data set [7], 20 ± 6 nM. The binding result in data set [3], in data set [4] and in data set [5] was “binds” throughout.

Usually Kd stands for the free concentration of one partner at which half of the binding sites on the other are occupied at equilibrium, for simple one-to-one binding.
